Laboratory results reported in patent publication US11452764B2, “Inhibiting FAK-AKT interaction to inhibit metastasis” (Board of Trustees of Michigan State University, priority 2017, dated 2022).
Entries after “also recorded” stand apart in the source; their conditions may differ. Blank lines part the entries; values can stand above or below the molecule they belong to. Where no end group is shown, it is not given here.

Columns and labels:
[1] = tested on: FAK-Tyr-397 phosphorylation; assay: FAK-Y397 western blotting in suspended SW620 cells at ambient or 15 mmHg increased pressure (ZINC compounds); type: cell-based, human; details: for Pressure stimulation of FAK-pTyr397 / Basal FAK-pTyr397: concentrations studied: ZINC31501681 1 pM-300 μM, ZINC58264388 1 nM-100 nM, ZINC40099027 10 pM-10 nM, ZINC25613745 1 nM
Text: Extracellular pressure was increased by 15 mmHg over ambient pressure using a temperature and pressure-controlled box as described by Basson et al. (J Cell Biochem, 78: 47-61 (2000)).
Cells were maintained at ambient or increased pressure in bacteriologic plastic dishes pacificated with heat-inactivated bovine serum albumin to prevent adhesion and avoid adhesion-associated background FAK activation. Cells were lysed in lysis buffer, resolved by 10% SDS-PAGE, transferred to nitrocellulose and blotted with antibody to Tyr-397-phosphorylated FAK (rabbit monoclonal ab81298, Abcam, San Francisco, Calif., USA) and anti-rabbit 680 (LI-COR Inc. Lincoln, Nebr., USA), before quantitation using Kodak Scientific Imaging Systems 1D, V.3.5.4 (Zeng et al., Oncotarget, 8 98051-98067 (2017)). Total FAK (Anti-FAK, clone 4.47 Merck, Darmstadt, Germany with secondary anti-mouse 800, LI-COR Inc. Lincoln, Nebr., USA) served as a loading control. FAK and Tyr-397-phosphorylated FAK western blots yielded doublets similar to those previously observed by others (McConnell et al. Mol Cancer 10: 75 (2011); Aflaki et al. Cell Mol Life Sci, 68: 3933-3947 (2011)); Das et al. Cancer Res, 72: 6217-6226 (2012); Ammoun et al. Oncogene, 31: 1710-1722 (2012)). Both bands were quantitated together.
Four structurally similar molecules to the FAK-derived sequence LAHPP (SEQ ID NO:25) (Table 2) were evaluated for their ability to prevent FAK activation by 15 mmHg increased extracellular pressure in human SW620 colon cancer cells. […] The structures of these compounds are shown below (and in FIG. 17).

FAK-Akt1 interaction = molecular target: T1, FAK-Akt1 interaction (Homo sapiens, UniProt P31749); assay: Interference of FAK-derived peptides with GST-FAK / GST-FAK-NT1 pull-down of Akt1; type: binding; details: for Akt1 pulldown by full length GST-FAK in presence of interfering 7 amino acid peptide: bait human wild type GST-FAK, peptides at 160 μM, vs. vehicle, n=12-14
T1 construct: endogenous in cells; host or cells: Akt1 from Caco-2/SW620 cell lysate; GST-FAK bait expressed in E. coli BL21 (pGEX-4T1)
Procedure: (§1) In some cases Glutathione-Sepharose-4B beads (30 μl) (GE Healthcare Life Science, Pittsburgh, Pa.) were conjugated with GST (expressed protein from a 250 μl bacterial pellet per 30 μl of beads) or recombinant GST-tagged (expressed protein from a 3 ml bacterial pellet per 30 μl of beads) (24) and incubated with lysate from 2×10^7 Caco-2 or SW620 cells (1500 μg protein) or purified Akt1 (0.35 μg) (Origene, Rockville, Md.) overnight at 4° C. Similar incubation for two hours at 4° C. was performed with FAK-derived peptides (Peptide 2.0, Chantilly, Va.) reconstituted in sterile water and mixed with conjugated beads and cell lysate for a final concentration of […] before overnight Akt1 incubation. Bound protein was eluted for western analysis (24).
To minimize the effect of non-specific binding to GST, a larger FAK-NT1 peptide (relative to GST) was used as bait and the effects of interference by NT1-2-2 FAK truncated peptides were assessed.
A full length GST-FAK was used as bait to further validate the ability of the interfering peptides to block Akt1 interaction with the entire FAK molecule. Because the seven-amino acid sequence from the short helix (LAHPPEE, SEQ ID NO:1) seemed sufficient for Akt1 binding (e.g., as shown in FIG. 6E), the focus was placed on this seven amino acid sequence and mutants thereof. […] Neither a scrambled version of the short helix (HPELAPE, SEQ ID NO:23) nor a peptide derived from the β-strand secondary structure C-terminal adjacent to the short helix (WKYELRI) interfered with pulldown.

Akt1 = Akt1 (Homo sapiens, UniProt P31749); assay: GST-FAK truncation/mutant fusion protein pull-down of Akt1 (cell lysate or purified Akt1); type: binding; set-up: endogenous in cells; host or cells: Caco-2 or SW620 cell lysate; details: for Akt1 pull-down by mutated GST-FAK-NT1 versus wild-type NT1: SW620 lysate, densitometry normalized to wild-type NT1, n=8-19, p<0.05; for Akt1 pulled down by GST-FAK truncations: GST pull-down, N=4, p<0.05
Procedure: Glutathione-Sepharose 4B beads (15 μl) were washed twice in ice-cold PBS and resuspended in 400 μl PBS. Bacterial lysate containing GST-Akt1, GST-FAK-NT1 (truncations), or GST proteins (gift of Dr. J. Chen) were then added in excess and incubated with the beads for 1 h. Glutathione-Sepharose 4B beads coupled to GST-Akt1, GST-FAK (truncations), or GST were then washed twice with PBS by centrifuge for 5 min at 500 g and incubated with nontransfected or transfected Caco-2 cell lysates (600-800 μg protein) overnight at 4° C. Transfected Caco-2 cells received plasmids encoding HA-WT-FAK or HA-FRNK. Nontransfected and transfected Caco-2 cell lysates were prepared in cell lysis buffer lysis buffer [50 mM Tris (pH 7.4), 150 mM NaCl, 1% Triton X-100, 1% sodium deoxycholate, 0.1% SDS, 1 mM EDTA, 1 mM phenylmethylsulfonyl fluoride, 1 mM Na3VO4, 50 mM NaF, 10 mM sodium pyrophosphate, […] (pH 7.4)]. Following incubation, beads were washed twice with lysis buffer without SDS and protease inhibitors. Proteins were eluted with Laemmli SDS sample dilution buffer, separated by 10% SDS-PAGE, and immunoblotted with GST, Akt1 (Cell Signaling Technology, Danvers, Mass.), or HA monoclonal antibodies (Covance, Chantilly, Va.).
as §1
Protein concentrations were determined by bicinchoninic acid (BCA) protein assay (Pierce, Rockford, Ill.). Eluate from GST pull-downs or collected cell lysates was resolved by SDS-PAGE and transferred to Hybond P 0.45 PVDF blotting membrane (Amersham Life Science, Arlington Heights, Ill.). Membranes were blocked for 1 hour at room temperature with Odyssey TBS Blocking Buffer (Amersham Life Science, Arlington Heights, Ill.) and blotted overnight at 4° C. with antibodies against FAK (#3285), Phospho-FAK Tyr397 (#3283), Akt1 (#2967), Phospho-Akt1 Ser473 (#9271), GSK-3β (#9315), Phospho-GSK-3β Ser9 (#9315), or the GST tag (#2624) (CST, Beverly, Mass.). Membranes were visualized by the infrared fluorescent IRDye system (LI-COR Biosciences, Lincoln, Nebr.) and analyzed on an Odyssey scanner (LI-COR Biosciences, Lincoln, Nebr.) within the linear range. The doublet produced by the Akt1 antibody is consistent with results with this antibody (Ko et al., Elife: 5 (2016); Wu et al. Cell Discov 3: 16054 (2017)) and other (Datta et al. Cell 91: 231-41 (1997)) anti-Akt antibodies. Results were normalized to the appropriate GST tag, GAPDH, or total protein (for phosphorylated proteins) and relative to associated ambient controls unless stated otherwise.
Because the NT1 region of FAK is still quite large, we further truncated FAK-NT1 in an attempt to specify the region responsible for Akt1 binding. Five truncations were generated: NT1 (residues 1-126), NT1-1 (residues 1-60), NT1-2 (residues 61-126), […] (residues 61-93), and NT1-2-2 (residues 94-126) (FIG. 4A).
Tests involved use of 0.3 μg of purified Akt1 in pull-down assays to approximate the Akt1 in 1,500 μg of whole cell lysate, the lysate from 1×10^7 SW620 cells previously used in similar pull-down assays. This amount (0.3 μg of purified Akt1) was selected from Western blots comparing band intensity of 0.001-0.05 μg/lane of purified Akt1 against the band intensity of 40 or 80 μg/lane of cell lysate (not shown). […]

[2] = SW620, 15 mmHg increased pressure

Chain of Akt1 (P31749 whole entry, the tested form may be a part): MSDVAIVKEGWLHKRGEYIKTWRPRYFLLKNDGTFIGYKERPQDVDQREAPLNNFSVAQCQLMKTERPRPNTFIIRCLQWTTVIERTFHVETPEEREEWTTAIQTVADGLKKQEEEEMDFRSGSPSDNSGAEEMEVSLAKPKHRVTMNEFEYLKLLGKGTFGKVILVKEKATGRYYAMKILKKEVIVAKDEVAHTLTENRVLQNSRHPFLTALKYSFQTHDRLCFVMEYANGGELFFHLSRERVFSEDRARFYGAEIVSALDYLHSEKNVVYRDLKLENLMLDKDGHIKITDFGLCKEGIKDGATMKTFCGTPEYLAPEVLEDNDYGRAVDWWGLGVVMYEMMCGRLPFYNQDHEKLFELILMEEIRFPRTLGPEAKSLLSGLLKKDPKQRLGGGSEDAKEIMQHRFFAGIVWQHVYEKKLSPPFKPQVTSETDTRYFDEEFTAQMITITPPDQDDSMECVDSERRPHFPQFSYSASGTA
T1 sequence (P31749 whole entry): as the sequence (P31749 whole entry, the tested form may be a part) above

Molecule: C=C(Cl)/C(=C\C)[C@H](CC(=O)N1CCC[C@H]1c1ccc(OC)c(OC)c1)NC(N)=O [ZINC25613745]
Pressure stimulation of FAK-pTyr397 [1, 2]: affected neither basal nor pressure-stimulated FAK-Tyr-397 phosphorylation; also recorded: Maintained | Basal FAK-pTyr397 ([1]; SW620, ambient pressure): affected neither basal nor pressure-stimulated FAK-Tyr-397 phosphorylation; also recorded: No change

Molecule: O=C(N[C@@H](CC(=O)N1CCC[C@H]1c1nnc2ccccn12)c1ccccc1)c1ccccc1 [ZINC31501681]
Pressure stimulation of FAK-pTyr397 [1, 2]: prevented a further pressure-induced increase in FAK-Tyr-397 phosphorylation | Basal FAK-pTyr397 ([1]; SW620, ambient pressure): increased basal FAK-Tyr-397 phosphorylation | Phosphorylation of FAK-Tyr-397 at ambient pressure (pFAKY397/FAK) ([1]; suspended SW620, 1-100 pM, 30 minutes, vs 0.1% DMSO, five experiments, p≤0.05): enhances the phosphorylation of FAK-Tyr-397

Molecule: COc1ccc([C@@H]2CCCN2C(=O)Nc2cc(C(F)(F)F)ccc2N2CCOCC2)cc1 [ZINC40099027]
Pressure stimulation of FAK-pTyr397 [1, 2]: prevented a further pressure-induced increase in FAK-Tyr-397 phosphorylation | Basal FAK-pTyr397 ([1]; SW620, ambient pressure): increased basal FAK-Tyr-397 phosphorylation

Molecule: Cc1ccccc1[C@@H]1CCCN1C(=O)C[C@H](NC(N)=O)c1cccs1 [ZINC58264388]
Concentrations at which there was no further increase of FAK-pTyr397 by pressure [1, 2]: (10-100 nM) | Pressure stimulation of FAK-pTyr397 [1, 2]: prevented a further pressure-induced increase in FAK-Tyr-397 phosphorylation | Concentrations at which basal FAK-pTyr397 was increased ([1]; SW620, ambient pressure): (10-100 nM) | Basal FAK-pTyr397 ([1]; SW620, ambient pressure): increased basal FAK-Tyr-397 phosphorylation

Akt1 pulldown by full length GST-FAK in presence of interfering 7 amino acid peptide (FAK-Akt1 interaction): reduced Akt1 pulldown
Molecule: AAHCGEE [triple mutant L113A, P116C, P117G version of the FAK peptide]

Molecule: EVHWVHLDMGVSSVREKYELAHPPEEWKYELRI (listed as Homo sapiens) [Pep-FAK-NT1-2-2, wild-type 33 amino acid FAK peptide, residues 94-126]
Akt1 pulled down by GST-FAK-NT1 in presence of interfering 33 amino acid peptide (FAK-Akt1 interaction; bait GST-FAK-NT1, vs. vehicle (water), n=4): reduced binding between GST-FAK-NT1 and Akt1

Akt1 pull-down by mutated GST-FAK-NT1 versus wild-type NT1 (Akt1): increased Akt1 pull-down
Molecule: FAK(L113A/P116C/P117G): GST-FAK-NT1 triple mutant (AAHCGEE)

Akt1 pull-down by mutated GST-FAK-NT1 versus wild-type NT1 (Akt1): lowered Akt1 pull-down
Molecule: FAK(P117S): GST-FAK-NT1 with P117S mutation (LAHPSEE)

Akt1 pulldown by full length GST-FAK in presence of interfering 7 amino acid peptide (FAK-Akt1 interaction): No such effect
Molecule: HPELAPE [scrambled short helix control peptide, reference compound]

Molecule: LAHPPEE (listed as Homo sapiens) [wild-type seven amino acid short helix peptide, FAK residues 113-119]
Akt1 pulldown by full length GST-FAK in presence of interfering 7 amino acid peptide (FAK-Akt1 interaction): reduced Akt1 pulldown

Akt1 pulldown by full length GST-FAK in presence of interfering 7 amino acid peptide (FAK-Akt1 interaction): reduced Akt1 pulldown
Molecule: LAHPSEE [mutant (P117S) version of the seven amino acid FAK peptide]

Akt1 pulled down by GST-FAK truncations (Akt1): significantly smaller amount of Akt1
Molecule: NT1-1: recombinant GST-FAK truncated peptide, residues 1-60 (MAAAYLDPNLNHTPNSSTKTHLGTGMERSPGAMERVLKVFHYFESNSEPTTWASIIRHGD; also: recombinant GST fusion (GST tag); listed as Homo sapiens)

Akt1 pulled down by GST-FAK truncations (Akt1): significantly smaller amount of Akt1
Molecule: NT1-2-1: recombinant GST-FAK truncated peptide, residues 61-93 (ATDVRGIIQKIVDSHKVKNVACYGFRLSHLRSE; also: recombinant GST fusion (GST tag); listed as Homo sapiens)

Akt1 pulled down by GST-FAK truncations (Akt1): significantly more Akt1 | Akt1 pull-down by GST-NT1-2-2 and its truncations versus GST control (Akt1; n=6, p<0.05 vs. GST): pulled down much more
Molecule: NT1-2-2: recombinant GST-FAK truncated peptide, residues 94-126 (SEQ ID NO:2) (EVHWVHLDMGVSSVREKYELAHPPEEWKYELRI; also: GST fusion (recombinant))

Akt1 pulldown by full length GST-FAK in presence of interfering 7 amino acid peptide (FAK-Akt1 interaction): No such effect
Molecule: WKYELRI [β-strand control peptide, C-terminal adjacent to the short helix, reference compound]
